Test results as given in PMC3551606.
Read-outs that look alike come from different tables or passages of the source.

Key:
[1] = molecular target: Drosophila cathepsin B (Drosophila)
[2] = molecular target: Drosophila cathepsin B (Drosophila); remark: listed apart in the source
[3] = molecular target: Drosophila cathepsin B (Drosophila); remark: listed apart in the source

Substance | CTSB activity % (residual activity on ZFR-AMC with 3 µM crammer variant, 75 nM CTSB, pH 5.0, 20°C) [1] | CTSB activity % (residual activity on ZFR-AMC with 3 µM crammer variant, 75 nM CTSB, pH 5.0, 20°C) [2] | reduction of CTSB activity at 3 µM crammer variant (text's number; differs from 100 minus the table's cell) [3]
crammer K36A (natural protein) | 29% |  | 
crammer F16A (natural protein) |  | 34.6% | 64%
crammer R29A (natural protein) | 64% |  | 
crammer E8A (natural protein) | 77.7% |  | 
crammer F46A (natural protein) |  | 41% | 
Drosophila melanogaster crammer, wild type (natural protein) |  | 14.7% | 
crammer Y32A (natural protein) |  | 67.6% | 
crammer E67A (natural protein) | 54.1% |  | 
crammer Y12A (natural protein) |  | 63% | 
crammer W9A (natural protein) |  | 87.8% | 

Results, then the substance that gave them:

CTSB activity % (residual activity on ZFR-AMC with 3 µM crammer variant, 75 nM CTSB, pH 5.0, 20°C) [1] | CTSB activity % (residual activity on ZFR-AMC with 3 µM crammer variant, 75 nM CTSB, pH 5.0, 20°C) [2] | reduction of CTSB activity at 3 µM crammer variant (text's number; differs from 100 minus the table's cell) [3] | Substance
21.1% |  |  | crammer D6A (natural protein)
 | 47.8% |  | crammer Y20A (natural protein)
 | 85.2% |  | crammer W53A (natural protein)
19% |  |  | crammer E24A (natural protein)
89% |  |  | crammer R28A (natural protein)
